Assay results as given in paper PMC4423706, “Mechanism of Thiosulfate Oxidation in the SoxA Family of Cysteine-ligated Cytochromes” (The Journal of Biological Chemistry, 2015).

T1: TsdA (thiosulfate dehydrogenase) (Allochromatium vinosum, UniProt D3RVD4)
T1 construct: native signal peptide (removed on export), C-terminal strep(II) tag kept; E. coli Lemo56(DE3) with pEC86; two c-type hemes; 28,228 Da by ESI-MS; 234 residues modeled
T1 sequence (D3RVD4 28-270): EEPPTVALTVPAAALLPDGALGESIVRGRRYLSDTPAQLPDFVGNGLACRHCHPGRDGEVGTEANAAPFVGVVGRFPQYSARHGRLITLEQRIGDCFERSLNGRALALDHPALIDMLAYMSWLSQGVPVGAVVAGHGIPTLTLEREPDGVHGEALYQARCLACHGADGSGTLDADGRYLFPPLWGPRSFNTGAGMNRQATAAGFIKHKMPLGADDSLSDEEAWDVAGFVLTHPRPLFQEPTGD


substrate: O=S(O)(O)=S; test: purified protein; format: biochemical, Allochromatium vinosum; conditions: 1 mM potassium ferricyanide as electron acceptor, 100 mM ammonium acetate pH 4.25, 24 °C

Row | Molecule | Km [mM] | kcat [s⁻¹]
1 | TsdA (thiosulfate dehydrogenase) (Allochromatium vinosum DSM 180) (protein, native signal peptide (removed on export), C-terminal strep(II) tag kept; E. coli Lemo56(DE3) with pEC86; two c-type hemes; 28,228 Da by ESI-MS; 234 residues modeled) EEPPTVALTVPAAALLPDGALGESIVRGRRYLSDTPAQLPDFVGNGLACRHCHPGRDGEVGTEANAAPFVGVVGRFPQYSARHGRLITLEQRIGDCFERSLNGRALALDHPALIDMLAYMSWLSQGVPVGAVVAGHGIPTLTLEREPDGVHGEALYQARCLACHGADGSGTLDADGRYLFPPLWGPRSFNTGAGMNRQATAAGFIKHKMPLGADDSLSDEEAWDVAGFVLTHPRPLFQEPTGD | 2.2 ± 0.3 | 4280 ± 150
2 | TsdA (thiosulfate dehydrogenase) (Allochromatium vinosum DSM 180; S127A) (protein, native signal peptide (removed on export), C-terminal strep(II) tag kept; E. coli Lemo56(DE3) with pEC86; two c-type hemes; 28,228 Da by ESI-MS; 234 residues modeled) EEPPTVALTVPAAALLPDGALGESIVRGRRYLSDTPAQLPDFVGNGLACRHCHPGRDGEVGTEANAAPFVGVVGRFPQYSARHGRLITLEQRIGDCFERALNGRALALDHPALIDMLAYMSWLSQGVPVGAVVAGHGIPTLTLEREPDGVHGEALYQARCLACHGADGSGTLDADGRYLFPPLWGPRSFNTGAGMNRQATAAGFIKHKMPLGADDSLSDEEAWDVAGFVLTHPRPLFQEPTGD | 10.7 ± 6.2 | 3060 ± 920
3 | TsdA (thiosulfate dehydrogenase) (Allochromatium vinosum DSM 180; R119A) (protein, native signal peptide (removed on export), C-terminal strep(II) tag kept; E. coli Lemo56(DE3) with pEC86; two c-type hemes; 28,228 Da by ESI-MS; 234 residues modeled) EEPPTVALTVPAAALLPDGALGESIVRGRRYLSDTPAQLPDFVGNGLACRHCHPGRDGEVGTEANAAPFVGVVGRFPQYSARHGRLITLEQAIGDCFERSLNGRALALDHPALIDMLAYMSWLSQGVPVGAVVAGHGIPTLTLEREPDGVHGEALYQARCLACHGADGSGTLDADGRYLFPPLWGPRSFNTGAGMNRQATAAGFIKHKMPLGADDSLSDEEAWDVAGFVLTHPRPLFQEPTGD | 47 ± 7 | 640 ± 40
4 | TsdA (thiosulfate dehydrogenase) (Allochromatium vinosum DSM 180; R109A) (protein, native signal peptide (removed on export), C-terminal strep(II) tag kept; E. coli Lemo56(DE3) with pEC86; two c-type hemes; 28,228 Da by ESI-MS; 234 residues modeled) EEPPTVALTVPAAALLPDGALGESIVRGRRYLSDTPAQLPDFVGNGLACRHCHPGRDGEVGTEANAAPFVGVVGRFPQYSAAHGRLITLEQRIGDCFERSLNGRALALDHPALIDMLAYMSWLSQGVPVGAVVAGHGIPTLTLEREPDGVHGEALYQARCLACHGADGSGTLDADGRYLFPPLWGPRSFNTGAGMNRQATAAGFIKHKMPLGADDSLSDEEAWDVAGFVLTHPRPLFQEPTGD | 5.8 ± 0.8 | 3210 ± 310
5 | TsdA (thiosulfate dehydrogenase) (Allochromatium vinosum DSM 180; R224A) (protein, native signal peptide (removed on export), C-terminal strep(II) tag kept; E. coli Lemo56(DE3) with pEC86; two c-type hemes; 28,228 Da by ESI-MS; 234 residues modeled) EEPPTVALTVPAAALLPDGALGESIVRGRRYLSDTPAQLPDFVGNGLACRHCHPGRDGEVGTEANAAPFVGVVGRFPQYSARHGRLITLEQRIGDCFERSLNGRALALDHPALIDMLAYMSWLSQGVPVGAVVAGHGIPTLTLEREPDGVHGEALYQARCLACHGADGSGTLDADGRYLFPPLWGPRSFNTGAGMNAQATAAGFIKHKMPLGADDSLSDEEAWDVAGFVLTHPRPLFQEPTGD | 2.5 ± 0.8 | 3670 ± 460

biological target: T1, TsdA (thiosulfate dehydrogenase); test: ESI-MS of intact protein; format: biochemical; conditions: covalent; S-thiosulfonation of Cys123, +112 Da; pH 4.25 and pH 8.0; no electron donor

Row | Molecule | ESI-MS of intact protein
6 | O=S(=O)(O)SSS(=O)(=O)O [tetrathionate] | Tetrathionate treatment under both conditions gave the 112-Da increase in mass
